Results from US20220242939A1 (BIOARCTIC, published 2022).
Non-standard residues stand in square brackets, D forms with d. No end group written: not given here. Ahx = NCCCCCC(=O)O

B1: negative control peptide AATVGSLAGQPLQER-Acp-C (SEQ ID NO:53) conjugated to BSA (peptide)
peptide: AATVGSLAGQPLQER[Ahx]C
modifications: not fully specified (residue 17); printed as AATVGSLAGQPLQER-Acp-C; also: C-terminal Cys conjugated to BSA carrier
notes: BSA carrier; also called 192-206 BSA-conjugated peptide
B2: L198 N-terminal neo-epitope peptide LAGQPL-Acp-C (SEQ ID NO:52) conjugated to BSA (peptide)
peptide: LAGQPL[Ahx]C
modifications: not fully specified (residue 8); printed as LAGQPL-Acp-C; also: C-terminal Cys conjugated to BSA carrier
notes: BSA carrier; also called L198-BSA peptide

What was measured:
[1] = biological target: 6F4, monoclonal anti-L198 antibody; experiment: inhibition ELISA; antibody at 0.05 ug/ml pre-incubated with the peptide in solution (4-fold dilutions from 10000 ng/ml), then on a plate coated with L198-BSA peptide; blank reduced OD 405 nm
Sequence of 6F4, monoclonal anti-L198 antibody (VH, as listed by the source, chain 1 of 2): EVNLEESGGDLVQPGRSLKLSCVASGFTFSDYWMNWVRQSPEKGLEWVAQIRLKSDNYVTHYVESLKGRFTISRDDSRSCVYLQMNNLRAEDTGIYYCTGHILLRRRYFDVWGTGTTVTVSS
Sequence of 6F4, monoclonal anti-L198 antibody (VL, as listed by the source, chain 2 of 2): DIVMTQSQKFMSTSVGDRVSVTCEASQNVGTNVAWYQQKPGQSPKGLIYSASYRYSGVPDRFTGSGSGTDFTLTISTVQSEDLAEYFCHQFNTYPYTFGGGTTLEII
Procedure: (§1) 0.5 μg/ml solution of N-terminal neo-epitope peptide L198 (SEQ ID NO:52) conjugated to BSA was prepared by dilution in PBS. 50 μl/well were added to an ELISA half-area 96 well microtiter plate, the plate was sealed with adhesive sealer and incubated over night at 4° C. After discarding the solution, the plates were blocked with protein-free blocking solution (Pierce) (150 μl/well) at room temperature for 90 min with shaking (900 rpm). The blocked plate was washed four times with washing buffer containing 0.28 mM NaH₂PO₄, 2.5 mM Na₂HPO₄, 150 mM NaCl, 0.1% TWEEN®-20 and 0.0075% Kathon CG.
(§2) Serial dilutions of each synthetic ApoE peptide were prepared by 4-fold dilution starting from 10000 ng/ml in 96 well storage plates (30 μl final volume). Each recombinant antibody to be tested was added (30 μl) to the serial dilutions of each of the synthetic ApoE peptides at a final concentration of 0.05 μg/ml per well. Samples were pre-incubated for 45 min at room temperature with shaking (900 rpm).
(§3) The pre-incubated samples were transferred (50 μl/well) to the blocked ELISA plates, and plates were incubated for 10 min at room temperature without shaking. Plates were washed as described above. Alkaline phosphatase conjugated anti-mouse IgG detection antibody (Mabtech, cat. no. 3310-4) was diluted 1:1000 and added to each plate (50 μl/well). The plate was sealed and incubated with shaking (900 rpm) for 45 min at room temperature and subsequently washed as described above. Alkaline phosphatase substrate (50 μl/well) was added to the plate and the optical density was read every 10 min at a wavelength of 405 nm for up to 120 min. The IC50 values were determined from a log inhibitor concentration response curve (FIG. 25).

[2] = biological target: 36A12, monoclonal anti-A199 antibody; experiment: inhibition ELISA; antibody at 0.05 ug/ml pre-incubated with the peptide in solution (4-fold dilutions from 10000 ng/ml), then on a plate coated with A199-BSA peptide; blank reduced OD 405 nm
Sequence of 36A12, monoclonal anti-A199 antibody (VH, as listed by the source, chain 1 of 2): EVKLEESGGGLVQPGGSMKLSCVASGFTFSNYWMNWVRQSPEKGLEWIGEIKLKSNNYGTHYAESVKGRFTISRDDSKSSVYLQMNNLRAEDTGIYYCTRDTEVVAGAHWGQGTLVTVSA
Sequence of 36A12, monoclonal anti-A199 antibody (VL, as listed by the source, chain 2 of 2): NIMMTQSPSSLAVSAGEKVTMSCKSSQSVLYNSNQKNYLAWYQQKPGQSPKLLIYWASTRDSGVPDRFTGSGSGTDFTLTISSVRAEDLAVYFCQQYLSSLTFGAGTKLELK
Procedure: as §1, with “A199” for “L198”, “NO:51)” for “NO:52)”
as §2, with “purified monoclonal” for “recombinant”
as §3, with “29).” for “25).”

[3] = biological target: 38G9, monoclonal anti-A199 antibody; experiment: as above
Sequence of 38G9, monoclonal anti-A199 antibody (VH, as listed by the source, chain 1 of 2): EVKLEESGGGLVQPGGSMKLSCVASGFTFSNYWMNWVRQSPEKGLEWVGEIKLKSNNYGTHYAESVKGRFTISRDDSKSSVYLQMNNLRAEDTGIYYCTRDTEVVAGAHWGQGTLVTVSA
Sequence of 38G9, monoclonal anti-A199 antibody (VL, as listed by the source, chain 2 of 2): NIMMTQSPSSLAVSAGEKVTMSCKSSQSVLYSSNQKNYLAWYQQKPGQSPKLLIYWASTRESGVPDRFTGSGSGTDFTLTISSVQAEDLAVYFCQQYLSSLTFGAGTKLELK
Procedure: as §1, with “A199” for “L198”, “NO:51)” for “NO:52)”
as §2, with “purified monoclonal” for “recombinant”
as §3, with “29).” for “25).”

[4] = biological target: T1, 7B10, recombinant IgG2c antibody; experiment: inhibition ELISA, second protocol; antibody at 0.05 ug/ml pre-incubated with the peptide in solution (4-fold dilutions from 10000 ng/ml), then on a plate coated with G200-BSA peptide; blank reduced OD 405 nm
T1 construct: also called 7610
T1 sequence (VH, as listed by the source, chain 1 of 2): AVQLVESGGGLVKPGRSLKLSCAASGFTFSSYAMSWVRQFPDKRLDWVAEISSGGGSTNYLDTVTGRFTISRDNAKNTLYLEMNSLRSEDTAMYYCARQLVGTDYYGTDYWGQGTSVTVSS
T1 sequence (VL, as listed by the source, chain 2 of 2): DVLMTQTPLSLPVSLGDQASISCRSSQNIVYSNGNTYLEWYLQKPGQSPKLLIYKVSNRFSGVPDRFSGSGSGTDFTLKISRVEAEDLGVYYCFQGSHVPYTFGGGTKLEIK
Procedure: as §2, with “[…]” for “Serial”, “peptide, recombinant C-terminal ApoE fragment G200-HIS and full-length ApoE4” for “peptide”, “1000” for “10000”, “peptides, G200-HIS or full-length ApoE4” for “peptides”
as §3, with “for 25” for “for 10”, “every 15” for “every 10”, “(FIG. 17).” for “(FIG. 25).”
(§4) In addition, a second inhibition ELISA with the ApoE peptides conjugated to BSA was run, in which the starting concentration of the antigens in solution was increased 10-fold. i.e. the starting concentration of the N-terminal neo-epitope of synthetic ApoE peptides conjugated to BSA and starting at amino acid L198 (SEQ ID NO:52), A199 (SEQ ID NO:51) or G200 (SEQ ID NO:50), or to BSA-conjugated negative control peptide (SEQ ID NO:53), was 10000 ng/ml. Furthermore, a 4-fold serial dilution of antigen was used, the plates were blocked with protein-free blocking solution (Pierce) for 90 min, the pre-incubated samples were incubated on the coated plates for 10 min (instead of 25 min), and the optical density was read every 10 min (instead of every 15 min). IC50 values were determined from a log inhibitor concentration response curve (FIG. 20).

[5] = biological target: 7C7, recombinant IgG2c antibody; experiment: as above
Sequence of 7C7, recombinant IgG2c antibody (VH, as listed by the source, chain 1 of 2): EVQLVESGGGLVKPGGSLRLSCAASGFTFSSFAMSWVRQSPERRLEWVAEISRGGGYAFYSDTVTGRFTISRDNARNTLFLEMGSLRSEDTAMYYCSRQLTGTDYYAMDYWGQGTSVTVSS
Sequence of 7C7, recombinant IgG2c antibody (VL, as listed by the source, chain 2 of 2): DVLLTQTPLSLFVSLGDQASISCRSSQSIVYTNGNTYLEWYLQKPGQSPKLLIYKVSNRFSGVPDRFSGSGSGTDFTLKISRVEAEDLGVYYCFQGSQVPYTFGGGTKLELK
Procedure: as §2, with “[…]” for “Serial”, “peptide, recombinant C-terminal ApoE fragment G200-HIS and full-length ApoE4” for “peptide”, “1000” for “10000”, “peptides, G200-HIS or full-length ApoE4” for “peptides”
as §3, with “for 25” for “for 10”, “every 15” for “every 10”, “(FIG. 17).” for “(FIG. 25).”
as §4

[6] = biological target: 17G4, recombinant IgG2c antibody; experiment: as above
Sequence of 17G4, recombinant IgG2c antibody (VH, as listed by the source, chain 1 of 2): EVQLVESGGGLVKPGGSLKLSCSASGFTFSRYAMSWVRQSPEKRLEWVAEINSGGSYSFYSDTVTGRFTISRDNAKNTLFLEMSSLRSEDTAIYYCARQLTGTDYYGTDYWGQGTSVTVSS
Sequence of 17G4, recombinant IgG2c antibody (VL, as listed by the source, chain 2 of 2): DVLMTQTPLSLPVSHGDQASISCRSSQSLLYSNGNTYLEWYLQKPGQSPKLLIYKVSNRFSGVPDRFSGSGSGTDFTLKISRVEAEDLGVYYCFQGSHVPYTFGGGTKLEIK
Procedure: as §2, with “[…]” for “Serial”, “peptide, recombinant C-terminal ApoE fragment G200-HIS and full-length ApoE4” for “peptide”, “1000” for “10000”, “peptides, G200-HIS or full-length ApoE4” for “peptides”
as §3, with “for 25” for “for 10”, “every 15” for “every 10”, “(FIG. 17).” for “(FIG. 25).”
as §4

[7] = biological target: 23D5, recombinant IgG2c antibody; experiment: as above
Sequence of 23D5, recombinant IgG2c antibody (VH, as listed by the source, chain 1 of 2): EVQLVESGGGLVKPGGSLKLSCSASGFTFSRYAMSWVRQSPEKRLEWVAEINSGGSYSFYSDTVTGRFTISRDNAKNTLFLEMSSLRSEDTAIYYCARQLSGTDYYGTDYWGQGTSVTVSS
Procedure: as §2, with “[…]” for “Serial”, “peptide, recombinant C-terminal ApoE fragment G200-HIS and full-length ApoE4” for “peptide”, “1000” for “10000”, “peptides, G200-HIS or full-length ApoE4” for “peptides”
as §3, with “for 25” for “for 10”, “every 15” for “every 10”, “(FIG. 17).” for “(FIG. 25).”
as §4

[8] = biological target: 28F2, recombinant IgG2c antibody; experiment: as above
Sequence of 28F2, recombinant IgG2c antibody (VH, as listed by the source, chain 1 of 2): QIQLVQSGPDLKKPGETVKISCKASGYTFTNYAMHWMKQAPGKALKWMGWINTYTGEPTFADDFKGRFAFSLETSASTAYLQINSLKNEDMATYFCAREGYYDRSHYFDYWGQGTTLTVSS
Sequence of 28F2, recombinant IgG2c antibody (VL, as listed by the source, chain 2 of 2): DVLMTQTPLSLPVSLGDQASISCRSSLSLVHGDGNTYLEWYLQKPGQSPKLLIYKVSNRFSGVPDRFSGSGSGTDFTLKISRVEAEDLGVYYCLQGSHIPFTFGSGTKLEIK
Procedure: as §2, with “[…]” for “Serial”, “peptide, recombinant C-terminal ApoE fragment G200-HIS and full-length ApoE4” for “peptide”, “1000” for “10000”, “peptides, G200-HIS or full-length ApoE4” for “peptides”
as §3, with “for 25” for “for 10”, “every 15” for “every 10”, “(FIG. 17).” for “(FIG. 25).”
as §4

[9] = biological target: 6F4, monoclonal anti-L198 antibody; experiment: inhibition ELISA: antigen in solution varied, antibody 6F4 at 0.05 µg/ml, plate coated with L198-BSA peptide
Procedure: as §1, §2
(§5) The pre-incubated samples were transferred (50 μl/well) to the blocked ELISA plates, and plates were incubated for 10 min at room temperature without shaking. […] Alkaline phosphatase substrate (50 μl/well) was added to the plate and the optical density was read every 10 min at a wavelength of 405 nm for up to 120 min. The IC50 values were determined from a log inhibitor concentration response curve (FIG. 25).

[10] = biological target: 8B3, monoclonal anti-L198 antibody; experiment: inhibition ELISA: antigen in solution varied, antibody 8B3 at 0.05 µg/ml, plate coated with L198-BSA peptide
Sequence of 8B3, monoclonal anti-L198 antibody (VH, as listed by the source, chain 1 of 2): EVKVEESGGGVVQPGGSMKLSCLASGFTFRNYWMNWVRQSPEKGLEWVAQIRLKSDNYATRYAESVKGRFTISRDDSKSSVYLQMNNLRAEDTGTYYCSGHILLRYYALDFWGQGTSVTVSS
Sequence of 8B3, monoclonal anti-L198 antibody (VL, as listed by the source, chain 2 of 2): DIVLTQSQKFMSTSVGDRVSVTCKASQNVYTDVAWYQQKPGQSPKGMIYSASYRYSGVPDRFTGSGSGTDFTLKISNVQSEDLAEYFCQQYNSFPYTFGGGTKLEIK
Procedure: as §1, §2, §5

[11] = biological target: 12B1, monoclonal anti-L198 antibody; experiment: inhibition ELISA: antigen in solution varied, antibody 12B1 at 0.05 µg/ml, plate coated with L198-BSA peptide
Sequence of 12B1, monoclonal anti-L198 antibody (VH, as listed by the source, chain 1 of 2): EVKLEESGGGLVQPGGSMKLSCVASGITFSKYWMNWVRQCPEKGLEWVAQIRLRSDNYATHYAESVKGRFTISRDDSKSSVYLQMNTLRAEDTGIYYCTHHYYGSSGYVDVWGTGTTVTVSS
Sequence of 12B1, monoclonal anti-L198 antibody (VL, as listed by the source, chain 2 of 2): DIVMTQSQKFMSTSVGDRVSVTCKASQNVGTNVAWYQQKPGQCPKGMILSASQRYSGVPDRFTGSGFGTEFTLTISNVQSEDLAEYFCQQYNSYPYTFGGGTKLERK
Procedure: as §1, §2, §5

[12] = biological target: 15F8, monoclonal anti-L198 antibody; experiment: inhibition ELISA: antigen in solution varied, antibody 15F8 at 0.05 µg/ml, plate coated with L198-BSA peptide
Sequence of 15F8, monoclonal anti-L198 antibody (VH, as listed by the source, chain 1 of 2): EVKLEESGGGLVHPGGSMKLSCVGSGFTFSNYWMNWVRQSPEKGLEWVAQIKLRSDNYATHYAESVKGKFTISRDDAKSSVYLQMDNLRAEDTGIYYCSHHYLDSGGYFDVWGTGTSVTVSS
Sequence of 15F8, monoclonal anti-L198 antibody (VL, as listed by the source, chain 2 of 2): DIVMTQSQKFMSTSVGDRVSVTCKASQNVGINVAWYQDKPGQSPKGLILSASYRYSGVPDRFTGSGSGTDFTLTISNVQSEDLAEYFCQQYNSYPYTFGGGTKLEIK
Procedure: as §1, §2, §5

[13] = biological target: 15H11, monoclonal anti-L198 antibody; experiment: inhibition ELISA: antigen in solution varied, antibody 15H11 at 0.05 µg/ml, plate coated with L198-BSA peptide
Sequence of 15H11, monoclonal anti-L198 antibody (VH, as listed by the source, chain 1 of 2): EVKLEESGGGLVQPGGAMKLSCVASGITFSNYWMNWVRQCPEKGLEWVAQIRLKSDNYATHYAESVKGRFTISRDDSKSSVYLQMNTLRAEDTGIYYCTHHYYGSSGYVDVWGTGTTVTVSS
Sequence of 15H11, monoclonal anti-L198 antibody (VL, as listed by the source, chain 2 of 2): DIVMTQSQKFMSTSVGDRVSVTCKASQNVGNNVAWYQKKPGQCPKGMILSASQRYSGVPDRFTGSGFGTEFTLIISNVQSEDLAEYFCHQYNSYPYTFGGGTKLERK
Procedure: as §1, §2, §5

[14] = biological target: T1, 7B10, recombinant IgG2c antibody; experiment: inhibition ELISA; antibody at 0.05 ug/ml pre-incubated with the antigen in solution (3-fold dilutions from 1000 ng/ml), then on a plate coated with G200-BSA peptide; blank reduced OD 405 nm
Procedure: as §2, with “[…]” for “Serial”, “peptide, recombinant C-terminal ApoE fragment G200-HIS and full-length ApoE4” for “peptide”, “1000” for “10000”, “peptides, G200-HIS or full-length ApoE4” for “peptides”
as §3, with “for 25” for “for 10”, “every 15” for “every 10”, “(FIG. 17).” for “(FIG. 25).”

[15] = biological target: 7C7, recombinant IgG2c antibody; experiment: as above
Procedure: as §2, with “[…]” for “Serial”, “peptide, recombinant C-terminal ApoE fragment G200-HIS and full-length ApoE4” for “peptide”, “1000” for “10000”, “peptides, G200-HIS or full-length ApoE4” for “peptides”
as §3, with “for 25” for “for 10”, “every 15” for “every 10”, “(FIG. 17).” for “(FIG. 25).”

[16] = biological target: 17G4, recombinant IgG2c antibody; experiment: as above
Procedure: as §2, with “[…]” for “Serial”, “peptide, recombinant C-terminal ApoE fragment G200-HIS and full-length ApoE4” for “peptide”, “1000” for “10000”, “peptides, G200-HIS or full-length ApoE4” for “peptides”
as §3, with “for 25” for “for 10”, “every 15” for “every 10”, “(FIG. 17).” for “(FIG. 25).”

[17] = biological target: 23D5, recombinant IgG2c antibody; experiment: as above
Procedure: as §2, with “[…]” for “Serial”, “peptide, recombinant C-terminal ApoE fragment G200-HIS and full-length ApoE4” for “peptide”, “1000” for “10000”, “peptides, G200-HIS or full-length ApoE4” for “peptides”
as §3, with “for 25” for “for 10”, “every 15” for “every 10”, “(FIG. 17).” for “(FIG. 25).”

[18] = biological target: 28F2, recombinant IgG2c antibody; experiment: as above
Procedure: as §2, with “[…]” for “Serial”, “peptide, recombinant C-terminal ApoE fragment G200-HIS and full-length ApoE4” for “peptide”, “1000” for “10000”, “peptides, G200-HIS or full-length ApoE4” for “peptides”
as §3, with “for 25” for “for 10”, “every 15” for “every 10”, “(FIG. 17).” for “(FIG. 25).”

[19] = biological target: 63F6, monoclonal anti-A199 antibody; experiment: inhibition ELISA; antibody at 0.05 ug/ml pre-incubated with the peptide in solution (4-fold dilutions from 10000 ng/ml), then on a plate coated with A199-BSA peptide; blank reduced OD 405 nm
Sequence of 63F6, monoclonal anti-A199 antibody (VH, as listed by the source, chain 1 of 2): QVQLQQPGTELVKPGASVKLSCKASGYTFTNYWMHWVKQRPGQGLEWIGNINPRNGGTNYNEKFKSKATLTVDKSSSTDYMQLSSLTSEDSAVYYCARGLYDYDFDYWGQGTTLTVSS
Sequence of 63F6, monoclonal anti-A199 antibody (VL, as listed by the source, chain 2 of 2): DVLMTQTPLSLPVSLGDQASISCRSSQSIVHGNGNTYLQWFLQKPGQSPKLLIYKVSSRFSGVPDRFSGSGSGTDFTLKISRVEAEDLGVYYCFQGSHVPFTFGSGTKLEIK
Procedure: as §1, with “A199” for “L198”, “NO:51)” for “NO:52)”
as §2, with “purified monoclonal” for “recombinant”
as §3, with “29).” for “25).”

Binder	binding result [1]	binding result [2]	binding result [3]	binding result [4]	binding result [5]	binding result [6]	binding result [7]	binding result [8]	IC50 [9] [ng/mL]	IC50 [10] [ng/mL]	IC50 [11] [ng/mL]	IC50 [12] [ng/mL]	IC50 [13] [ng/mL]	binding result [14]	binding result [15]	binding result [16]	binding result [17]	binding result [18]	binding result [19]
B1	no binding (tested: 10000 ng/ml)	no binding (tested: 10000 ng/ml)	no binding (tested: 10000 ng/ml)	no binding (tested: 10000 ng/ml)	no binding (tested: 10000 ng/ml)	no binding (tested: 10000 ng/ml)	no binding (tested: 10000 ng/ml)	no binding (tested: 10000 ng/ml)	–	–	–	–	–	–	–	–	–	–	–
B2	–	no binding (tested: 10000 ng/ml)	no binding (tested: 10000 ng/ml)	–	–	–	–	–	8.2	3.1	4.8	6.5	4.5	no binding (tested: 1000 ng/ml)	no binding (tested: 1000 ng/ml)	no binding (tested: 1000 ng/ml)	no binding (tested: 1000 ng/ml)	no binding (tested: 1000 ng/ml)	no binding (tested: 10000 ng/ml)
